Tested on: Escherichia coli TOP10
Assay: shrunken log2 fold change of peptide-encoding DNA abundance (4.5 h post-induction vs induction); higher = less antimicrobial activity (less host growth inhibition)
Conditions: time post-induction: 4.5 h; library: site-saturation at positions 5, 18, 19, 20
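Also: peptides expressed intracellularly from a pBAD plasmid library in pooled LB shake-flask culture, induced with 0.3% L-arabinose, DNA abundance read by NGS, three biological replicates, DESeq2 with apeglm shrinkage.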

| Sequence | shrunken log2 fold change |
| --- | --- |
| RRIRWRPPRLPRPRPRPFDVPRP | -0.00233 |
| RRIRPRPPRLPRPRPRPSNLPRP | -0.823 |
| RRIRRRPPRLPRPRPRPWTQPRP | -0.0997 |
| RRIRRRPPRLPRPRPRPNTNPRP | -0.22 |
| RRIRDRPPRLPRPRPRPEGCPRP | 0.0171 |
| RRIRNRPPRLPRPRPRPPFPPRP | 0.309 |
| RRIRDRPPRLPRPRPRPHLDPRP | -0.131 |
| RRIRDRPPRLPRPRPRPQDNPRP | -0.0684 |
| RRIRARPPRLPRPRPRPTPGPRP | 0.826 |
| RRIRARPPRLPRPRPRPKKQPRP | 0.0491 |
| RRIRYRPPRLPRPRPRPPSHPRP | -0.383 |
| RRIRRRPPRLPRPRPRPGNSPRP | 0.119 |
| RRIRFRPPRLPRPRPRPFYHPRP | -0.727 |
| RRIRPRPPRLPRPRPRPDYHPRP | -0.815 |
| RRIRCRPPRLPRPRPRPYNRPRP | -0.0425 |
| RRIRPRPPRLPRPRPRPKLNPRP | 0.0891 |
| RRIRIRPPRLPRPRPRPWWDPRP | -0.309 |
| RRIRRRPPRLPRPRPRPRSQPRP | 0.533 |
| RRIRYRPPRLPRPRPRPGEGPRP | 0.00405 |
| RRIRCRPPRLPRPRPRPWNVPRP | -0.476 |
| RRIRSRPPRLPRPRPRPVWTPRP | 0.241 |
| RRIRERPPRLPRPRPRPSHVPRP | -2.72 |
| RRIRKRPPRLPRPRPRPFRIPRP | -0.0356 |
| RRIRYRPPRLPRPRPRPQYAPRP | -0.262 |
| RRIRARPPRLPRPRPRPDFIPRP | -0.0493 |

| Sequence | shrunken log2 fold change |
| --- | --- |
| RRIRVRPPRLPRPRPRPHRHPRP | -0.357 |
| RRIRYRPPRLPRPRPRPKHLPRP | -0.155 |
| RRIRCRPPRLPRPRPRPDNGPRP | -0.0856 |
| RRIRQRPPRLPRPRPRPRISPRP | -0.176 |
| RRIRTRPPRLPRPRPRPPPDPRP | 0.58 |
| RRIRLRPPRLPRPRPRPHWEPRP | 0.0215 |
| RRIRNRPPRLPRPRPRPTFIPRP | -0.279 |
| RRIRNRPPRLPRPRPRPRFGPRP | 0.399 |
| RRIRCRPPRLPRPRPRPVYTPRP | -0.222 |
| RRIRSRPPRLPRPRPRPFMFPRP | -0.156 |
| RRIRKRPPRLPRPRPRPADCPRP | 0.117 |
| RRIRKRPPRLPRPRPRPGGWPRP | 0.62 |
| RRIRERPPRLPRPRPRPWKFPRP | -0.301 |
| RRIRGRPPRLPRPRPRPHVHPRP | -0.332 |
| RRIRCRPPRLPRPRPRPKAKPRP | 0.0298 |
| RRIRLRPPRLPRPRPRPYFPPRP | -0.802 |
| RRIRPRPPRLPRPRPRPMLYPRP | -0.0392 |
| RRIRERPPRLPRPRPRPQLQPRP | -0.0648 |
| RRIRSRPPRLPRPRPRPIEHPRP | -0.0344 |
| RRIRWRPPRLPRPRPRPHCHPRP | -0.254 |
| RRIRPRPPRLPRPRPRPFHDPRP | 0.000303 |
| RRIRWRPPRLPRPRPRPQPIPRP | 0.813 |
| RRIRMRPPRLPRPRPRPAMPPRP | 0.548 |
| RRIRQRPPRLPRPRPRPVMQPRP | 0.0499 |
| RRIRQRPPRLPRPRPRPWVWPRP | 0.0723 |

| Sequence | shrunken log2 fold change |
| --- | --- |
| RRIRRRPPRLPRPRPRPYDLPRP | -0.546 |
| RRIRFRPPRLPRPRPRPIVHPRP | -0.581 |
| RRIRLRPPRLPRPRPRPRIPPRP | 0.09 |
| RRIRCRPPRLPRPRPRPGQMPRP | -0.147 |
| RRIRYRPPRLPRPRPRPSDQPRP | -0.235 |
| RRIRTRPPRLPRPRPRPNYAPRP | 0.0202 |
| RRIRTRPPRLPRPRPRPQCWPRP | -0.19 |
| RRIRARPPRLPRPRPRPCEQPRP | 0.233 |
| RRIRHRPPRLPRPRPRPCVPPRP | -0.00981 |
| RRIRGRPPRLPRPRPRPMVCPRP | 0.55 |
| RRIRRRPPRLPRPRPRPQQRPRP | 0.795 |
| RRIRKRPPRLPRPRPRPNEIPRP | 0.118 |
| RRIRKRPPRLPRPRPRPKGWPRP | 0.61 |
| RRIRKRPPRLPRPRPRPEQLPRP | -0.0173 |
| RRIRPRPPRLPRPRPRPMCKPRP | -0.274 |
| RRIRVRPPRLPRPRPRPFEFPRP | -0.284 |
| RRIRRRPPRLPRPRPRPSIIPRP | -0.332 |
| RRIRIRPPRLPRPRPRPRRAPRP | 0.176 |
| RRIRGRPPRLPRPRPRPTDRPRP | 0.0231 |
| RRIRTRPPRLPRPRPRPHVRPRP | -0.00804 |
| RRIRERPPRLPRPRPRPNAVPRP | -0.407 |
| RRIRLRPPRLPRPRPRPKYDPRP | -0.0843 |
| RRIRTRPPRLPRPRPRPVARPRP | 2.14 |
| RRIRDRPPRLPRPRPRPSNAPRP | -0.184 |
| RRIRMRPPRLPRPRPRPFCRPRP | 0.315 |

| Sequence | shrunken log2 fold change |
| --- | --- |
| RRIRMRPPRLPRPRPRPLCYPRP | -0.0697 |
| RRIRARPPRLPRPRPRPTVHPRP | 2.45 |
| RRIRQRPPRLPRPRPRPEQWPRP | 0.222 |
| RRIRSRPPRLPRPRPRPIVMPRP | 0.0137 |
| RRIRMRPPRLPRPRPRPSEKPRP | 0.938 |
| RRIRVRPPRLPRPRPRPYGDPRP | -0.168 |
| RRIRQRPPRLPRPRPRPFLDPRP | -0.372 |
| RRIRYRPPRLPRPRPRPISCPRP | -0.202 |
| RRIRPRPPRLPRPRPRPEDPPRP | 0.122 |
| RRIRYRPPRLPRPRPRPPLNPRP | -0.228 |
| RRIRRRPPRLPRPRPRPINPPRP | 0.00585 |
| RRIRVRPPRLPRPRPRPYHTPRP | -0.15 |
| RRIRPRPPRLPRPRPRPMIHPRP | -0.696 |
| RRIRWRPPRLPRPRPRPVPQPRP | 0.282 |
| RRIRSRPPRLPRPRPRPQAVPRP | 0.197 |
| RRIRYRPPRLPRPRPRPRAVPRP | 0.0585 |
| RRIRLRPPRLPRPRPRPKIAPRP | -0.203 |
| RRIRARPPRLPRPRPRPNAFPRP | 0.424 |
| RRIRQRPPRLPRPRPRPTVEPRP | 0.186 |
| RRIRYRPPRLPRPRPRPIWMPRP | -0.0399 |
| RRIRTRPPRLPRPRPRPSDYPRP | -0.278 |
| RRIRERPPRLPRPRPRPHDPPRP | -0.0577 |
| RRIRMRPPRLPRPRPRPAEMPRP | 0.0981 |
| RRIRIRPPRLPRPRPRPDENPRP | 0.108 |
| RRIRNRPPRLPRPRPRPKYTPRP | -0.63 |

| Sequence | shrunken log2 fold change |
| --- | --- |
| RRIRPRPPRLPRPRPRPWENPRP | -0.0456 |
| RRIRARPPRLPRPRPRPQGFPRP | 0.807 |
| RRIRGRPPRLPRPRPRPTLGPRP | 0.936 |
| RRIRARPPRLPRPRPRPEFKPRP | 0.0365 |
| RRIRGRPPRLPRPRPRPPPIPRP | 1.16 |
| RRIRSRPPRLPRPRPRPKNMPRP | -0.324 |
| RRIRHRPPRLPRPRPRPRVCPRP | 0.318 |
| RRIRWRPPRLPRPRPRPYCNPRP | -0.455 |
| RRIRVRPPRLPRPRPRPFQMPRP | -0.333 |
| RRIRMRPPRLPRPRPRPFQAPRP | 0.242 |
| RRIRMRPPRLPRPRPRPTPYPRP | 0.2 |
| RRIRARPPRLPRPRPRPGNMPRP | -0.0598 |
| RRIRTRPPRLPRPRPRPHRAPRP | 0.0171 |
| RRIRTRPPRLPRPRPRPQHNPRP | -0.324 |
| RRIRFRPPRLPRPRPRPYSVPRP | 0.062 |
| RRIRCRPPRLPRPRPRPIKEPRP | -0.0741 |
| RRIRHRPPRLPRPRPRPSRKPRP | 0.094 |
| RRIRRRPPRLPRPRPRPLEEPRP | 0.597 |
| RRIRMRPPRLPRPRPRPQLRPRP | 0.357 |
| RRIRHRPPRLPRPRPRPFTMPRP | -0.349 |
| RRIRTRPPRLPRPRPRPPARPRP | 0.546 |
| RRIRYRPPRLPRPRPRPYFVPRP | -0.858 |
| RRIRQRPPRLPRPRPRPFSQPRP | 0.0178 |
| RRIRGRPPRLPRPRPRPLRHPRP | 1.34 |
| RRIRVRPPRLPRPRPRPSQIPRP | -0.206 |

Source: the supplement of paper PMC9112550, “Optimization of the antimicrobial peptide Bac7 by deep mutational scanning” (BMC Biology, 2022)
